In patent US20170029841A1, “METHODS AND COMPOSITIONS FOR SELECTIVE REGULATION OF PROTEIN EXPRESSION” (priority 2015, published 2017):
Where two headings read alike, the source gives them in different places.

How the values were obtained:
[1] = test system: transgenic maize R0 plants (double copy events); test: R0 plant greenhouse glyphosate spray: vegetative tolerance and induced male sterility; format: in vivo; settings: vector configuration A
Procedure: Transformation vectors containing the recombinant DNA constructs were used with an Agrobacterium-based transformation method and maize immature embryos and techniques known in the art. Leaf samples of R0 plants were collected and molecular analysis was conducted to select transgenic plants containing a single copy (one insertion) or a double copy (two independent insertions) of the recombinant DNA construct and no presence of vector backbone. Single copy events were not sprayed with glyphosate and were selfed and advanced for R1 seed collection, while double copy events were used for R0 glyphosate spray to assess vegetative tolerance and induced male sterility. Transgenic plants that were not sprayed with glyphosate had normal anthesis, normal pollen shedding, and normal pollen development as determined by Alexandar staining and microscopic observation.
Double copy R0 events were used in testing to approximate a single copy homozygous event. Plants were sprayed with glyphosate at two different growth stages to determine if the presence of the mts-siRNA target element in the recombinant DNA construct provided vegetative glyphosate tolerance and glyphosate-induced tassel sterility. The plants were sprayed in a greenhouse with 1× glyphosate (0.75 lb ae/acre) applied at the V5 stage followed by 1× glyphosate (0.75 lb ae/acre) applied at the V8 stage. Seven days after the V5 stage glyphosate application, plants were scored for vegetative injury with scores of ≦10% injury considered as showing vegetative glyphosate tolerance (% Vegetative Tolerant). Male sterility was measured in two ways. […] Anthers were then collected and dissected to microscopically observe pollen development. Anthers for each event were tested for no viable pollen grains produced as detected by Alexandar staining under microscopic observation and scored as not producing any viable pollen (% No Pollen). In plants not sprayed with glyphosate, tassel development, anther extrusion, and pollen development were normal.
The mts-siRNA target elements were tested in multiple transformation vector configurations. Each transformation vector was used to produce multiple R0 plants with each R0 plant representing a unique transgenic event made using the same transformation vector. Data for three different transformation vector configurations are provided as Tables 11 and 12.

[2] = test system: transgenic maize plants; settings: for CIPVT (LSD = 8.1): glyphosate 1.5 lbs ae/acre at V2, 0.75 at V8, 0.75 at V10, range over events; for Avg. plant height (inches) (LSD = 6.9): in vivo

B1: SEQ ID NO: 8: mts-siRNA target element, nucleotide positions 247 to 441 of cDNA SEQ ID NO: 21 (nucleic acid)
DNA: AGATTGGTCATACACTAGATAGGGCTAGATCACTCGGGTCGCCACAAGTTGAAGAATGCAAAGAGTGTCCACATGATTTCATGGTGATGAACAGTGATTTTATGAGCAAACTAGCAAAGGATAATCAGTTGCATATATGTGATGAAGACCGATCAGTTTCCGAGCAAAGTAGCAAATGAGTCATCGAAGCTGTCA
modifications: Zea mays
B1 was tested, and the “% Vegetative Tolerant” value ([1]; glyphosate 0.75 lb ae/acre at V5 then V8, <=10% injury 7 days after V5 spray, listed as 8) was 90%, the “% Completely Male-sterile” value ([1]; no anther extrusion up to S90+12 after V8 glyphosate, listed as 8) was 100% and the “% No Pollen” value ([1]; no viable pollen by Alexandar staining) was 50%. The “AES90+8 (LSD = 10)” value ([2]; average anther extrusion at S90+8, same glyphosate regimen, listed as 8) was 15.75-17.85%, the “Seed Yield bu/acre (LSD = 24.7)” value ([2]; end of season) was 80-90 bu/acre and the “CIPVT (LSD = 8.1)” value [2] was “No significant difference”. The “CIPVT (LSD = 8.1)” value ([2]; listed as 8) was 2.5-2.7%, the “Avg. plant height (inches) (LSD = 6.9)” value [2] was “No significant difference” and the “Avg. plant height (inches) (LSD = 6.9)” value ([2]; listed as 8) was 80.1 inches.
